The target in assay [1] is human prostate specific membrane antigen (PSMA) (human) (UniProt Q04609). Briefly: flow cytometry, LNCaP cells (high PSMA expression) stained with the PE conjugate; number printed over the white bar. For orientation: In flow cytometry, cells or beads pass a laser one at a time.
The target is the same in assay [2]. The assay can be described thus: flow cytometry, 22Rv1 cells (low PSMA expression) stained with the PE conjugate; number printed over the white bar.

Chain of human prostate specific membrane antigen (PSMA) (human) (Q04609 whole entry): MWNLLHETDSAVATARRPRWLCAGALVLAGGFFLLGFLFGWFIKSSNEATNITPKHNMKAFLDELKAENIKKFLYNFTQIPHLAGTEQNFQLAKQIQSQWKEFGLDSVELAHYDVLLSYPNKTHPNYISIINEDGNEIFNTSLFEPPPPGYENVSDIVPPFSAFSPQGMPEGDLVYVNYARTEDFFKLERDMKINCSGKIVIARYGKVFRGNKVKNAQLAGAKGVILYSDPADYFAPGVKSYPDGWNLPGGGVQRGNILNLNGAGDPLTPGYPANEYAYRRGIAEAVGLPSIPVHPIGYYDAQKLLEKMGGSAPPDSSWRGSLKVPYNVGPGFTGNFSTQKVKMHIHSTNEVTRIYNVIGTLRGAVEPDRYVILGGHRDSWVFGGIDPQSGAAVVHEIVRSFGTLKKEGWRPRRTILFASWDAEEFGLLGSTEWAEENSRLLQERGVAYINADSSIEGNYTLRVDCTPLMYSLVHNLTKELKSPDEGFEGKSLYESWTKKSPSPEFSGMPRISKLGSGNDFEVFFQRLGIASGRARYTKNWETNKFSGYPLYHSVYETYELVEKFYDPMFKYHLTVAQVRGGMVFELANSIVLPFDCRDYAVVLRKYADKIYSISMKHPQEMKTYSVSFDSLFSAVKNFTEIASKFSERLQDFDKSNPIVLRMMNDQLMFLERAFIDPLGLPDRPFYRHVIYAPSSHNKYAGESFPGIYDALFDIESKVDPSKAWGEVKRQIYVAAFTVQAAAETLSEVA

“Anti PSMA antibody-PE conjugate from Biolegend (clone LNI-17 catalog #342504)”: the values for the MFI in assay [1] and in assay [2] were 263 and 13.7, respectively.

The values above are taken from patent US20230183314A1.
